In patent US20150307565A1 (WISCONSIN ALUMNI RESEARCH FOUNDATION, published 2015):

Tests used:
[1] = target: the molecule itself; assay: equilibrium sedimentation (Pr) and size exclusion chromatography (Pr and Pfr); self-association
Protocol: FIG. 8A: Apparent size of PhyB(PSM) was measured by size exclusion chromatography (SEC) as either Pr (red circle) or following saturating red light irradiation (mostly Pfr) (purple circle). The column was calibrated with Bio-Rad size-exclusion protein standards and blue dextran (open circles). The partition coefficient, Kₐᵥ, was calculated using the equation, Kₐᵥ=(Vₑ−V₀)/(Vₜ−V₀), where Vₑ, V₀, and Vₜ are the elution, void and total volumes, respectively. V₀ and Vₜ were measured using blue dextran and vitamin B12. FIG. 8B: Equilibrium sedimentation was used to measure the mass of PhyB(PSM) as Pr using two concentrations and three rotor speeds. Lines represent global fits of the data. The calculated ratio of the measured molecular weight to that calculated from the sequence is shown.
Equilibrium sedimentation was conducted at 20° C. in darkness with Beckmann XL-A analytical ultracentrifuge and PhyB dissolved as Pr in SAB. SEC was conducted at 20° C. by FPLC (0.2 ml/min) with a 0.5×20 cm analytical grade Superdex 200 column (GE) equilibrated with SAB and 50 μl of either Pr samples or samples continuously irradiated with red light (mostly Pfr).

[2] = target: the molecule itself; assay: X-ray crystallography (self-association in the crystal)
Protocol: Well ordered crystals were formed in solutions containing 15 mg/ml PhyB, 1.2 M MgSO₄, 4% glycerol, 1% poly(ethylene glycol) 3350, and 100 mM BisTris(HCl) (pH 5.5). Crystals were exchanged into 100 mM MgSO₄, 25% poly(ethylene glycol) 3350, 15% poly(ethylene glycol) 550 monomethyl ether, and 100 mM BisTris (pH 5.5), and flash cooled in liquid nitrogen. Final datasets were collected at the Life Sciences Collaborative Access Team at the Advanced Photon Source (Argonne, Ill.), and indexed, integrated, and scaled using HKL2000 (Otwinowski et al., Method Enzymol. 276-307-326 (1997)). Initial phases were calculated by PHASER (McCoy et al., J. Appl. Crystallogr 40:658-674 (2007)) using the PAS-GAF region of Syn-Cph1 as the search model (PDB 2VEA, (Essen et al., Proc. Natl. Acad. Sci. USA 105:14709-14714 (2008)). Manual model-building was conducted with COOT (Emlsey et al., Acta Crystallogr D Biol. Crystallogr 60:2126-2132 (2004)) and refined with PHENIX (McCoy et al., J. Appl. Crystallogr 40:658-674 (2007)) without real-space refinement and invoking non-crystallographic symmetry in torsion angle mode, and validated with MOLPROBITY (Chen et al., Acta Crystallogr D Biol. Crystallogr 66:12-21 (2010)). Superpositions were arranged with LSQKAB (Kabsch, Acta Crystallogr A 32:922-923 (1976)).

| Protein | binding result [1] | binding result [2] |
| --- | --- | --- |
| Arabidopsis PhyB PSM (residues 1-624) assembled with PΦB (receptor, Arabidopsis thaliana, UniProt P14713 1-624, looked up, phytochromobilin (PΦB) attached by a thioether linkage to Cys-357, Tested for self-association in solution as Pr (equilibrium sedimentation, SEC) and as mostly Pfr after red light (SEC); also called full PSM fragment; full-length PSM; not shown: 6His tag: the PSM constructs carried N- or C-terminal 6His tags (the N-terminal one is TEV-cleavable and leaves Gly-His)) MVSGVGGSGGGRGGGRGGEEEPSSSHTPNNRRGGEQAQSSGTKSLRPRSNTESMSKAIQQYTVDARLHAVFEQSGESGKSFDYSQSLKTTTYGSSVPEQQITAYLSRIQRGGYIQPFGCMIAVDESSFRIIGYSENAREMLGIMPQSVPTLEKPEILAMGTDVRSLFTSSSSILLERAFVAREITLLNPVWIHSKNTGKPFYAILHRIDVGVVIDLEPARTEDPALSIAGAVQSQKLAVRAISQLQALPGGDIKLLCDTVVESVRDLTGYDRVMVYKFHEDEHGEVVAESKRDDLEPYIGLHYPATDIPQASRFLFKQNRVRMIVDCNATPVLVVQDDRLTQSMCLVGSTLRAPHGCHSQYMANMGSIASLAMAVIINGNEDDGSNVASGRSSMRLWGLVVCHHTSSRCIPFPLRYACEFLMQAFGLQLNMELQLALQMSEKRVLRTQTLLCDMLLRDSPAGIVTQSPSIMDLVKCDGAAFLYHGKYYPLGVAPSEVQIKDVVEWLLANHADSTGLSTDSLGDAGYPGAAALGDAVCGMAVAYITKRDFLFWFRSHTAKEIKWGGAKHHPEDKDDGQRMHPRSSFQAFLEVVKSRSQPWETAEMDAIHSLQLILRDSFKESEAA | no binding | – |
| Arabidopsis PhyB(90-624) biliprotein bearing a C-terminal SLHHHHHH tag, assembled with phytochromobilin (PΦB) (receptor, Arabidopsis thaliana, phytochromobilin (PΦB) attached by a thioether linkage to Cys-357, Crystallized as Pr; Two subunits (A and B) form the crystal dimer; also called PDB 4OUR) TTYGSSVPEQQITAYLSRIQRGGYIQPFGCMIAVDESSFRIIGYSENAREMLGIMPQSVPTLEKPEILAMGTDVRSLFTSSSSILLERAFVAREITLLNPVWIHSKNTGKPFYAILHRIDVGVVIDLEPARTEDPALSIAGAVQSQKLAVRAISQLQALPGGDIKLLCDTVVESVRDLTGYDRVMVYKFHEDEHGEVVAESKRDDLEPYIGLHYPATDIPQASRFLFKQNRVRMIVDCNATPVLVVQDDRLTQSMCLVGSTLRAPHGCHSQYMANMGSIASLAMAVIINGNEDDGSNVASGRSSMRLWGLVVCHHTSSRCIPFPLRYACEFLMQAFGLQLNMELQLALQMSEKRVLRTQTLLCDMLLRDSPAGIVTQSPSIMDLVKCDGAAFLYHGKYYPLGVAPSEVQIKDVVEWLLANHADSTGLSTDSLGDAGYPGAAALGDAVCGMAVAYITKRDFLFWFRSHTAKEIKWGGAKHHPEDKDDGQRMHPRSSFQAFLEVVKSRSQPWETAEMDAIHSLQLILRDSFKESEAASLHHHHHH | – | binds |
